Data published in publication PMC9352680, “A comprehensive thermodynamic model for RNA binding by the Saccharomyces cerevisiae Pumilio protein PUF4”.

biological target: T1, PUF4 RNA-binding domain (Saccharomyces cerevisiae, UniProt P25339 537-888); assay: Mg; RNA-MaP; 20 mM Na-HEPES pH 7.4, 30 mM KOAc, 0.75 mM MgCl2, 0.1% Tween-20, 5% glycerol, 0.1 mg/mL BSA, 2 mM DTT; 25 C; 0.0125-409.6 nM protein; conditions: tags: N-His6-TEV cleaved; C-SNAP kept, Cy3B-labelled; label: tethered on chip by stalled RNA polymerase
T1 sequence: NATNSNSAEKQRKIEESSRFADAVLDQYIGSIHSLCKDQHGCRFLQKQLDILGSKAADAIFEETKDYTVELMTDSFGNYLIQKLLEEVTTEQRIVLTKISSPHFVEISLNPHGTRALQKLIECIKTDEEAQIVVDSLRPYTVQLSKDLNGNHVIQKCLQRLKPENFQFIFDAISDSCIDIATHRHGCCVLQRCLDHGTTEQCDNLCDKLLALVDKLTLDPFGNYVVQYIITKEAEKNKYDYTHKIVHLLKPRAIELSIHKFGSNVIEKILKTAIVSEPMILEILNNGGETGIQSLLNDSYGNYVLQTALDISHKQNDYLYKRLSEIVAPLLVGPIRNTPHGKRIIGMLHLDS

| Binder | Kd [nM] |
| --- | --- |
| Ic_S4_P4E.1_K4.1_C4.1_H4.1_A4.1_[T5C]_[A6G]_[T7G]_F4.1_[A9C]_T4.1 (ssRNA) RNA: UUUGACAACUGAUCGUUCUUUCUUGUACGGUCUUCUUUCUCGAUCAGUUGUCUUU | 514 |
| Ic_S4_P4E.1_K4.1_C4.1_H4.1_A4.1_[T5C]_[A6G]_F4.1_[A9T]_T4.1 (ssRNA) RNA: UUUGACAACUGAUCGUUCUUUCUUGUACGUUUUUCUUUCUCGAUCAGUUGUCUUU | 11.9 |
| Ic_S4_P4E.1_K4.1_C4.1_H4.1_A4.1_[T5G]_[A6T]_F4.1_[A9T]_T4.1 (ssRNA) RNA: UUUGACAACUGAUCGUUCUUUCUUGUAGUUUUUUCUUUCUCGAUCAGUUGUCUUU | 55.8 |
| Ic_S4_P4E.1_K4.1_C4.1_H4.1_A4.1_[T5C]_[A6G]_F4.1_[T8A]_[A9T]_T4.1 (ssRNA) RNA: UUUGACAACUGAUCGUUCUUUCUUGUACGUAUUUCUUUCUCGAUCAGUUGUCUUU | 30.2 |
| Ic_S4_P4E.1_K4.1_C4.1_H4.1_A4.1_[T5C]_[A6C]_F4.1_[T8G]_[A9C]_T4.1 (ssRNA) RNA: UUUGACAACUGAUCGUUCUUUCUUGUACCUGCUUCUUUCUCGAUCAGUUGUCUUU | 93 |
| Ic_S4_P4E.1_K4.1_C4.1_H4.1_A4.1_[T5C]_[A6C]_[T7C]_F4.1_[T8C]_[A9G]_T4.1 (ssRNA) RNA: UUUGACAACUGAUCGUUCUUUCUUGUACCCCGUUCUUUCUCGAUCAGUUGUCUUU | 642 |
| Ic_S4_P4E.1_K4.1_C4.1_H4.1_A4.1_[T5C]_[A6G]_[T7C]_F4.1_[T8G]_[A9T]_T4.1 (ssRNA) RNA: UUUGACAACUGAUCGUUCUUUCUUGUACGCGUUUCUUUCUCGAUCAGUUGUCUUU | 400 |
| Ic_S4_P4E.1_K4.1_C4.1_H4.1_A4.1_[T5C]_[A6G]_[T7C]_F4.1_[T8A]_T4.1 (ssRNA) RNA: UUUGACAACUGAUCGUUCUUUCUUGUACGCAAUUCUUUCUCGAUCAGUUGUCUUU | 657 |
| Ic_S4_P4E.1_K4.1_C4.1_H4.1_A4.1_[T5C]_[A6C]_F4.1_[T8G]_[A9G]_T4.1 (ssRNA) RNA: UUUGACAACUGAUCGUUCUUUCUUGUACCUGGUUCUUUCUCGAUCAGUUGUCUUU | 431 |
| Ic_S4_P4E.1_K4.1_C4.1_H4.1_A4.1_[T5C]_[A6G]_[T7A]_F4.1_[T8C]_T4.1 (ssRNA) RNA: UUUGACAACUGAUCGUUCUUUCUUGUACGACAUUCUUUCUCGAUCAGUUGUCUUU | 436 |
| Ic_S4_P4E.1_K4.1_C4.1_H4.1_A4.1_[T5C]_[A6C]_[T7A]_F4.1_[A9T]_T4.1 (ssRNA) RNA: UUUGACAACUGAUCGUUCUUUCUUGUACCAUUUUCUUUCUCGAUCAGUUGUCUUU | 4.54 |
| Ic_S4_P4E.1_K4.1_C4.1_H4.1_A4.1_[T5C]_[A6G]_F4.1_[T8G]_[A9T]_T4.1 (ssRNA) RNA: UUUGACAACUGAUCGUUCUUUCUUGUACGUGUUUCUUUCUCGAUCAGUUGUCUUU | 33.7 |
| Ic_S4_P4E.1_K4.1_C4.1_H4.1_A4.1_[T5C]_[A6C]_[T7A]_F4.1_[T8C]_T4.1 (ssRNA) RNA: UUUGACAACUGAUCGUUCUUUCUUGUACCACAUUCUUUCUCGAUCAGUUGUCUUU | 151 |
| Ic_S4_P4E.1_K4.1_C4.1_H4.1_A4.1_[T5C]_[A6G]_[T7G]_F4.1_[T8C]_[A9T]_T4.1 (ssRNA) RNA: UUUGACAACUGAUCGUUCUUUCUUGUACGGCUUUCUUUCUCGAUCAGUUGUCUUU | 488 |
| Ic_S4_P4E.1_K4.1_C4.1_H4.1_A4.1_[T5C]_[A6C]_[T7G]_F4.1_[A9T]_T4.1 (ssRNA) RNA: UUUGACAACUGAUCGUUCUUUCUUGUACCGUUUUCUUUCUCGAUCAGUUGUCUUU | 48.5 |
| Ic_S4_P4E.1_K4.1_C4.1_H4.1_A4.1_[T5G]_[A6T]_F4.1_[T8G]_[A9T]_T4.1 (ssRNA) RNA: UUUGACAACUGAUCGUUCUUUCUUGUAGUUGUUUCUUUCUCGAUCAGUUGUCUUU | 291 |
| Ic_S4_P4E.1_K4.1_C4.1_H4.1_A4.1_[T5G]_[A6T]_F4.1_[T8C]_[A9T]_T4.1 (ssRNA) RNA: UUUGACAACUGAUCGUUCUUUCUUGUAGUUCUUUCUUUCUCGAUCAGUUGUCUUU | 96 |
| Ic_S4_P4E.1_K4.1_C4.1_H4.1_A4.1_[T5G]_[A6T]_F4.1_[T8A]_[A9C]_T4.1 (ssRNA) RNA: UUUGACAACUGAUCGUUCUUUCUUGUAGUUACUUCUUUCUCGAUCAGUUGUCUUU | 875 |
| Ic_S4_P4E.1_K4.1_C4.1_H4.1_A4.1_[T5C]_[A6G]_F4.1_[T8A]_[A9C]_T4.1 (ssRNA) RNA: UUUGACAACUGAUCGUUCUUUCUUGUACGUACUUCUUUCUCGAUCAGUUGUCUUU | 316 |
| Ic_S4_P4E.1_K4.1_C4.1_H4.1_A4.1_[T5C]_[A6G]_[T7C]_F4.1_[T8C]_[A9C]_T4.1 (ssRNA) RNA: UUUGACAACUGAUCGUUCUUUCUUGUACGCCCUUCUUUCUCGAUCAGUUGUCUUU | 142 |
| Ic_S4_P4E.1_K4.1_C4.1_H4.1_A4.1_[T5C]_[A6C]_F4.1_[T8C]_[A9C]_T4.1 (ssRNA) RNA: UUUGACAACUGAUCGUUCUUUCUUGUACCUCCUUCUUUCUCGAUCAGUUGUCUUU | 91.4 |
| Ic_S4_P4E.1_K4.1_C4.1_H4.1_A4.1_[T5C]_[A6C]_[T7C]_F4.1_[T8G]_[A9G]_T4.1 (ssRNA) RNA: UUUGACAACUGAUCGUUCUUUCUUGUACCCGGUUCUUUCUCGAUCAGUUGUCUUU | 1370 |
| Ic_S4_P4E.1_K4.1_C4.1_H4.1_A4.1_[T5C]_[A6G]_[T7C]_F4.1_T4.1 (ssRNA) RNA: UUUGACAACUGAUCGUUCUUUCUUGUACGCUAUUCUUUCUCGAUCAGUUGUCUUU | 2.22 |
| Ic_S4_P4E.1_K4.1_C4.1_H4.1_A4.1_[T5C]_[A6G]_[T7A]_F4.1_[T8C]_[A9C]_T4.1 (ssRNA) RNA: UUUGACAACUGAUCGUUCUUUCUUGUACGACCUUCUUUCUCGAUCAGUUGUCUUU | 994 |
| UCUCUUUGUCUAUUUUCUCUU (ssRNA) [Ib_S1_P4E.1_K4.1_C4.1_H4.1_[A4C]_A4.1_F4.1_[A9T]_T4.1] | 807 |
